The values that follow come from patent EP0577752B2.

This test addresses IL-8 binding sites on human neutrophils (human). Nature of the test: competition of 125I-IL-8 by unlabelled IL-8 on human neutrophils, 2 hr at 4 degrees.

By Kd is commonly meant the concentration at which binding is half-saturated. “human 72 amino acid IL-8 (from UniProt P10145 21-99) (ligand)” yielded a Kd of 1.1 nM and a binding sites/cell (binding sites/cell) of 31000.
